Assay results: patent US20240270821A1, “GIP/GLP1/GCG TRI-RECEPTOR AGONISTS AND USES THEREOF” (priority 2023, published 2024)

T1: human GIP receptor (human) (UniProt P48546)
T1 sequence (looked up): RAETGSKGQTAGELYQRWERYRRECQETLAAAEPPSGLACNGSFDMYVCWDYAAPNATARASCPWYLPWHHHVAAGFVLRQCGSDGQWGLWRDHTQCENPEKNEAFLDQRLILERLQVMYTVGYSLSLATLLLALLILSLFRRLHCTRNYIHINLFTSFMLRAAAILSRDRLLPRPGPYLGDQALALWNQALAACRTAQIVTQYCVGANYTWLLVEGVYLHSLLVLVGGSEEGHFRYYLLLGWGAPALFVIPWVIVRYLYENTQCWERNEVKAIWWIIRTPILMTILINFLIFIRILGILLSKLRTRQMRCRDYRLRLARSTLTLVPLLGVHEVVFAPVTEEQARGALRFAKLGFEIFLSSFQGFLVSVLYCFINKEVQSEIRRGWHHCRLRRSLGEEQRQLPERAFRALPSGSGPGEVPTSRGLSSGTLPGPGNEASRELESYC


Legend:
Assay in all cases: cell-based or functional assay
[1] = target: hGLP-1R (Homo sapiens, UniProt P43220)
Chain of hGLP-1R (P43220 24-463): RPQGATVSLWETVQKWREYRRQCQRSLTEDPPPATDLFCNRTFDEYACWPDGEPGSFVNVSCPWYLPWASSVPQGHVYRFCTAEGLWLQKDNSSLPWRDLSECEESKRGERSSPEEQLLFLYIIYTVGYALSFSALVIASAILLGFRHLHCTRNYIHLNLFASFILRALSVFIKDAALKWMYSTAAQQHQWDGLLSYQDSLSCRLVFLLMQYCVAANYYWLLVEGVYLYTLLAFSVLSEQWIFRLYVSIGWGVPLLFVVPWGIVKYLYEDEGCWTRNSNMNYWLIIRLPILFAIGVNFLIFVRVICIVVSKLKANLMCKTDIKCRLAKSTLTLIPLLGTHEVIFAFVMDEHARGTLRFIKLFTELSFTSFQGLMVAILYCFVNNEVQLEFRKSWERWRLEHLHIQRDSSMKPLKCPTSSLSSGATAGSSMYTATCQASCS

[2] = target: T1, human GIP receptor (human)
[3] = target: human glucagon receptor (human) (UniProt P47871)
Chain of human glucagon receptor (human) (P47871 26-477): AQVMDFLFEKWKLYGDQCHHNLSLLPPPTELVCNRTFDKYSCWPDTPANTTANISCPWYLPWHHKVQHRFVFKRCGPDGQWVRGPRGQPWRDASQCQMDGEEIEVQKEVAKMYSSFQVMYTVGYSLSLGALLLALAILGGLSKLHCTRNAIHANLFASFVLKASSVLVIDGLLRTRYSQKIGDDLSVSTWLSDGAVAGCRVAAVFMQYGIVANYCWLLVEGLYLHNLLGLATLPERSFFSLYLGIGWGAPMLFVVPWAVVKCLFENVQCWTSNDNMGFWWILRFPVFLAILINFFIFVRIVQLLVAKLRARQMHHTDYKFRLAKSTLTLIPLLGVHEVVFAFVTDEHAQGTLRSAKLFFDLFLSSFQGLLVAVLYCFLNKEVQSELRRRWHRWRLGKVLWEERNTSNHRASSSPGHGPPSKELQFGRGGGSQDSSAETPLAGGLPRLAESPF

Row | Binder | Relative cAMP EC50 [1] [nM] | cAMP Rel EC50 (1% HSA) [1] [nM] | Relative cAMP EC50 [2] [nM] | cAMP Rel EC50 (1% HSA) [2] [nM] | Relative cAMP EC50 [3] [nM] | cAMP Rel EC50 (1% HSA) [3] [nM] | cAMP Rel EC50, nM (in the presence of 1% HSA) [1] [nM] | cAMP Rel EC50, nM (in the presence of 1% HSA) [2] [nM] | cAMP Rel EC50, nM (in the presence of 1% HSA) [3] [nM]
1 | YXQGTFTSDXSQXLDXKAQXAFIEYLIAXGPSSGAPPPSGSEE (non-natural residues; acylated Lys C18 diacid; C-term amide; synthetic construct; SITE 2: note = 2-Aminoisobutyric Acid; SITE 10: note = 3-(4-Pyridyl)-L-alanine; SITE 13: note = alpha-methyl-leucine; SITE 16: note = L-ornithine; SITE 17: note = Lysine is chemically modified through conjugation of the epsilon-amino group of the Lysine side chain with (gamma-Gl)) [Example 1091] | 1.23 | 145 | 0.0592 | 5.79 | 4.67 | 550 | – | – | –
2 | YXQGTFTSDXSQXLDXKAQXAFIEXLIAXGPSSGEPPPSGSEE (non-natural residues (Aib, 4Pal, Orn, Me4Pal, αMeY); lipidated K; amide; synthetic construct; SITE 2: note = 2-Aminoisobutyric Acid; SITE 10: note = 3-(4-Pyridyl)-L-alanine; SITE 13: note = alpha-methyl-leucine; SITE 16: note = L-ornithine; SITE 17: note = Lysine is chemically modified through conjugation of the epsilon-amino group of the Lysine side chain with (gamma-Gl)) [Example 1094] | 0.623 | 64.4 | 0.0515 | 5.86 | 5.84 | 831 | – | – | –
3 | YXQGTFTSDXSQXLDXKAQXQFIEXLIEXGPSSGEPPPSGSEE (Aib, 4Pal, Orn, αMeL, Me4Pal, αMeY, acylated Lys, amide; synthetic construct; SITE 2: note = 2-Aminoisobutyric Acid; SITE 10: note = 3-(4-Pyridyl)-L-alanine; SITE 13: note = alpha-methyl-leucine; SITE 16: note = L-ornithine; SITE 17: note = Lysine is chemically modified through conjugation of the epsilon-amino group of the Lysine side chain with (2-[2-(2-) [Example 1098] | 1.22 | 184 | 0.201 | 31.2 | 6.2 | 994 | – | – | –
4 | YXQGTFTSDXSQXLDXKAQXAFIQXLIEGGPSSGAPPPSGSEE (Aib, 4Pal, αMeL, Orn, Me4Pal, αMeY; acylated Lys; C-terminal amide; synthetic construct; SITE 2: note = 2-Aminoisobutyric Acid; SITE 10: note = 3-(4-Pyridyl)-L-alanine; SITE 13: note = alpha-methyl-leucine; SITE 16: note = L-ornithine; SITE 17: note = Lysine is chemically modified through conjugation of the epsilon-amino group of the Lysine side chain with D-Glutami) [Example 1072] | 0.889 | 95.1 | 0.157 | 9.94 | 10.5 | 914 | – | – | –
5 | YXQGTFTSDXSQXLDXKAQXAFIEYLIAXGPSSGEPPPSGSEE (non-natural residues, C-terminal amide, acylated Lys with fatty diacid; synthetic construct; SITE 2: note = 2-Aminoisobutyric Acid; SITE 10: note = 3-(4-Pyridyl)-L-alanine; SITE 13: note = alpha-methyl-leucine; SITE 16: note = L-ornithine; SITE 17: note = Lysine is chemically modified through conjugation of the epsilon-amino group of the Lysine side chain with (2-[2-(2-) [Example 1095] | 1.17 | 159 | 0.065 | 8.73 | 2.75 | 337 | – | – | –
6 | YXQGTFTSDXSQXLDXKAQXAFIEXLIAGGPSSGAPPPSGSEE (non-natural residues; C18 diacid-γ-Glu acyl on Lys; C-terminal amide; synthetic construct; SITE 2: note = 2-Aminoisobutyric Acid; SITE 10: note = 3-(4-Pyridyl)-L-alanine; SITE 13: note = alpha-methyl-leucine; SITE 16: note = L-ornithine; SITE 17: note = Lysine is chemically modified through conjugation of the epsilon-amino group of the Lysine side chain with D-Glutami) [Example 1074] | 0.794 | 101 | 0.0745 | 8.49 | 22.8 | 1990 | – | – | –
7 | YXQGTFTSDXSQXLDXKAQXAFIEYLIQXGPSSGEPPPSGSEE (non-natural residues; lipidated Lys AEEA-γGlu-C18 diacid; C-term amide; synthetic construct; SITE 2: note = 2-Aminoisobutyric Acid; SITE 10: note = 3-(4-Pyridyl)-L-alanine; SITE 13: note = alpha-methyl-leucine; SITE 16: note = L-ornithine; SITE 17: note = Lysine is chemically modified through conjugation of the epsilon-amino group of the Lysine side chain with (2-[2-(2-) [Example 1096] | 1.47 | 194 | 0.0799 | 11.6 | 3.94 | 397 | – | – | –
8 | YXQGTFTSDXSQXLDXKAQXAFIEXLIEXGPSSGEPPPSGSEE (non-natural residues, C18 diacid-(γGlu)2 acyl on K, C-terminal amide; synthetic construct; SITE 2: note = 2-Aminoisobutyric Acid; SITE 10: note = 3-(4-Pyridyl)-L-alanine; SITE 13: note = alpha-methyl-leucine; SITE 16: note = L-ornithine; SITE 17: note = Lysine is chemically modified through conjugation of the epsilon-amino group of the Lysine side chain with (gamma-Gl)) [Example 1093] | 0.954 | 141 | 0.152 | 26.8 | 7.72 | 958 | – | – | –
9 | YXQGTFTSDXSQXLDKKAQXAFIEYLIAGGPSSGAPPPSGEEE (Aib, 4Pal, αMeL, Me4Pal, acylated K, C-terminal amide; synthetic construct; SITE 2: note = 2-Aminoisobutyric Acid; SITE 10: note = 3-(4-Pyridyl)-L-alanine; SITE 13: note = alpha-methyl-leucine; SITE 17: note = Lysine is chemically modified through conjugation of the epsilon-amino group of the Lysine side chain with D-Glutamic acid-(gamma-Glu)-CO-(CH2)16) [Example 1088] | 2.99 | 367 | 0.182 | 15.6 | 14.8 | 1710 | – | – | –
10 | YXQGTFTSDFSXXLDKKAQXAFIEWLLAGGPSSGEPPPSGE (synthetic construct; SITE 2: note = 2-Aminoisobutyric Acid; SITE 12: note = L-ornithine; SITE 13: note = alpha-methyl-leucine; SITE 17: note = Lysine is chemically modified through conjugation of the epsilon-amino group of the Lysine side chain with (2-[2-(2-Amino-ethoxy)-ethoxy]-acetyl)-(gamma-Glu)) [Example 103] | 3.27 | – | 0.2 | – | 10.5 | – | 482 | 35.1 | 2590
11 | YXQGTFTSDXSQXLDKKAQXAFIEYLIAGGPSSGAPPPSGE (Aib, 4Pal, αMeL, Me4Pal; acylated lysine; amide; synthetic construct; SITE 2: note = 2-Aminoisobutyric Acid; SITE 10: note = 3-(4-Pyridyl)-L-alanine; SITE 13: note = alpha-methyl-leucine; SITE 17: note = Lysine is chemically modified through conjugation of the epsilon-amino group of the Lysine side chain with (Glu)2-(gamma-Glu)-CO-(CH2)16-CO2H; SI) [Example 1087] | 2.63 | 439 | 0.207 | 23.3 | 15.4 | 2460 | – | – | –
12 | YXQGTFTSDXSQXLDKKAQXAFIEYLIAGGPSSGAPPPSGE (non-natural residues; lipidated Lys; C-terminal amide; synthetic construct; SITE 2: note = 2-Aminoisobutyric Acid; SITE 10: note = 3-(4-Pyridyl)-L-alanine; SITE 13: note = alpha-methyl-leucine; SITE 17: note = Lysine is chemically modified through conjugation of the epsilon-amino group of the Lysine side chain with D-Glutamic acid-(gamma-Glu)-CO-(CH2)16) [Example 1085] | 1.28 | 188 | 0.0827 | 9.84 | 11.6 | 1370 | – | – | –
13 | YXQGTFTSDXSQXLDKKAQXAFIEYLIAGGPSSGAPPPSGE (Aib, 4Pal, αMeL, Me4Pal; acylated K; C-terminal amide; synthetic construct; SITE 2: note = 2-Aminoisobutyric Acid; SITE 10: note = 3-(4-Pyridyl)-L-alanine; SITE 13: note = alpha-methyl-leucine; SITE 17: note = Lysine is chemically modified through conjugation of the epsilon-amino group of the Lysine side chain with (Glu)-(gamma-Glu)-CO-(CH2)16-CO2H; SIT) [Example 1086] | 1.23 | 496 | 0.117 | 21.2 | 12 | 3140 | – | – | –
14 | YXQGTFTSDFSXXLDKKAQXAFIEWLLEGGXSSGAPPPSGE (synthetic construct; SITE 2: note = 2-Aminoisobutyric Acid; SITE 12: note = L-ornithine; SITE 13: note = alpha-methyl-leucine; SITE 17: note = Lysine is chemically modified through conjugation of the epsilon-amino group of the Lysine side chain with (2-[2-(2-Amino-ethoxy)-ethoxy]-acetyl)-(gamma-Glu)) [Example 104] | 3.39 | – | 0.251 | – | 7.58 | – | 698 | 97.5 | 1260
